Measurements: patent publication US20260265332A1, “PROCESS FOR PREPARATION OF DUAL GIP/GLP-1 PEPTIDES HAVING CONTROLLED PARTICLE SIZE” (ASSIA CHEMICAL INDUSTRIES LTD., priority 2023, published 2026)
Several values for one entry are separate records, joined by “and”; a condition that tells them apart may be missing. Equal entries are not always repeated.

Assays:
Format in all cases: physicochemical
[1] = Bulk density (BD), USP 2014 Method I (616) Bulk Density and Tapped Density of Powders; conditions: lyophilized Tirzepatide powder, before particle size reduction
Protocol: Bulk density (BD) was measured according to USP 2014 Method I (616) Bulk Density and Tapped Density of Powders.

[2] = Flowability, flow through an orifice (BEP2 Flowability Tester, 25 mm nozzle); conditions: lyophilized Tirzepatide powder; flow through funnel, 25 mm aperture
From the text: Instrument: BEP2 Flowability Tester from Copley Scientific, with Funnel Attachment and Manually Operated Stirrer with a nozzle corresponding to aperture size of 25 mm.
Methodology: Flow Through an Orifice
The test sample was introduced into the funnel and the time required for the entire sample to flow out of the funnel was measure using a suitable stopwatch.
The flow rate results are expressed in terms of mass vs time, i.e., grams per second.

[3] = Particle size distribution by laser diffraction (Malvern Mastersizer 3000, Mie theory, Isopar-G); conditions: Tirzepatide powder after particle size reduction (jet milling or sieving)
Protocol: As used herein, particle size distribution is determined by means of laser diffractometry. More specifically, unless otherwise indicated, the particle size was determined using a Mastersizer 3000 from Malvern Instruments. Preferably, particle size and particle size distribution are determined by laser light diffraction, using Mie theory, and Isopar-G dispersant (isoparaffinic fluid (CAS No) 64742-48-9)) refractive index 1.42.
It will be understood that the term “D(90)” as used herein refers to a particle size distribution where 90% of the volume of particles have a diameter lower than the D(90) value.
• Instrumentation: Malvern Laser Diffraction Mastersizer 3000, Hydro My cell • Measuring range: 0.01-3500 mcm • Analysis model: Mie Theory • Powder RI: 1.488, Absorption: 1 • Dispersant name: Isopar-G • Dispersant RI: 1.42 • Speed rate of the flow cell: 2500 • Internal Sonication: 1 minute • Recirculation time: 1 minute

Substance: Tirzepatide [Example 1A]
- BD (bulk density) [1]: 0.13 g/mL
- flowability [2]: 9.7 g/s

Substance: Tirzepatide [Example 1B]
- BD (bulk density) [1]: 0.007 g/mL
- flowability [2]: non flowable

Substance: Tirzepatide [Example 1]
- BD (bulk density) [1]: 0.1 g/mL
- flowability [2]: 6.1 g/s

Substance: Tirzepatide [Example 2]
- particle size d(0.9) [3]: 21.9 μm

Substance: Tirzepatide [Example 3A]
- particle size d(0.9) [3]: 59 μm and 59.1 μm

Substance: Tirzepatide [Example 3B]
- particle size d(0.9) [3]: 128 μm and 128.0 μm

Substance: Tirzepatide [Example 3]
- particle size d(0.9) [3]: 31 μm and 30.9 μm
